Reference: US20180044429A1 (CELLDEX THERAPEUTICS, published 2018)

How the values were obtained:
[1] = target: T1, recombinant human CD27 (soluble, captured on anti-FLAG coated ELISA plates) (human, UniProt P26842 20-191); test: ELISA; CD27 captured on plates coated with anti-FLAG antibody, detection with goat anti-human IgG Fc-HRP; panel title 'Recombinant CD27'
T1 construct: also called rCD27; sCD27
T1 sequence: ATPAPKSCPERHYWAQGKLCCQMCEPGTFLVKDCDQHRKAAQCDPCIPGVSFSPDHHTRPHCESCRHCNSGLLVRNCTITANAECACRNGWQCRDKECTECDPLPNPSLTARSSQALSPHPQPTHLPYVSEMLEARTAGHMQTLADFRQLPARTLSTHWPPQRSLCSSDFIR
Protocol: In this example, the binding activity of the CD27 agonists prepared as described in Example 2 was examined. Binding to recombinant CD27 (rCD27) was tested by standard ELISA. Human CD27 was captured on ELISA plates coated with anti-FLAG antibody, followed by incubation with CD27 agonists. A goat anti-human IgG Fc-HRP (horseradish peroxidase) antibody and substrate Super Blue TMB were used for detection.
The CD27 agonists tested were 1F5mAb-1F5sFv (sFv), 1F5mAb-2C2sFv (sFv) and 1F5mAb-CD70. The full-length, unconjugated IgG form of the anti-human CD27 monoclonal antibodies 1F5 and 2C2 were used as positive controls. Binding to a mutant form of soluble CD27, in which the arginine at position 87 was substituted with alanine (R87A), which is within the 1F5 binding site, was also tested.

[2] = target: soluble recombinant human CD27 with R87A substitution (human) (UniProt P26842); test: ELISA; mutated (R87A) CD27 captured on plates coated with anti-FLAG antibody, detection with goat anti-human IgG Fc-HRP; panel title 'mutated CD27'

B1: human anti-human CD27 monoclonal antibody 2C2 (full-length, unconjugated IgG) (antibody, V domains shown)
VH: QVQLVESGGGVVQPGRSLRLSCAASGFTFSSYDIHWVRQAPGKGLEWVAVIWNDGSNKYYADSVKGRFTISRDNSTNSLFLQMNSLRAEDTAVYYCVGGTADLEHWDQGTLVTVSS
VL: DIQMTQSPSSLSASVGDRVTITCRASQGISSWLAWYQQKPEKAPKSLIYAASSLQSGVPSRFSGSGSGTDFTLTISSLQPEDFATYYCQQYNSYPLTFGGGTKVEIK
notes: Tested as full-length unconjugated IgG; also called 2C2 mAb
B1 was tested, and the binding result [1] was “binds” and the EC50 (read off the curve) [2] was 0.02 µg/mL.

B2: human anti-human CD27 monoclonal antibody 1F5 (full-length, unconjugated IgG) (antibody, V domains shown)
VH: QVQLVESGGGVVQPGRSLRLSCAASGFTFSSYDMHWVRQAPGKGLEWVAVIWYDGSNKYYADSVKGRFTISRDNSKNTLYLQMNSLRAEDTAVYYCARGSGNWGFFDYWGQGTLVTVSS
VL: DIQMTQSPSSLSASVGDRVTITCRASQGISRWLAWYQQKPEKAPKSLIYAASSLQSGVPSRFSGSGSGTDFTLTISSLQPEDFATYYCQQYNTYPRTFGQGTKVEIK
notes: also called 1F5 mAb; anti-CD27 antibody (1F5)
B2: binds [1].
